The values below come from publication PMC2713256, “Tousled kinase TLK1B counteracts the effect of Asf1 in inhibition of histone H3–H4 tetramer formation” (BMC Research Notes, 2009).

For orientation: stoichiometry N means a count of units in the complex or per binding partner.

Experiment [1] addresses histone H3–H4 dimer (bovine | human) (UniProt P68432). Description: cross-linking; combinations of H3, H4, Asf1 and TLK1B in equivalent amounts, no ATP, 5 min at room temperature in 50 mM phosphate buffer pH 7.2; 3 mM formaldehyde 5 min on ice, stopped with 50 mM glycine; SDS-PAGE, blots for H3, H4, Asf1 and TLK1B.
In experiment [2] the target is T1, recombinant human TLK1B (GST-TLK1B) (human, UniProt Q9UKI8-3 1-549).
T1 construct: Named GST-TLK1B in the pull-downs and only TLK1B in the cross-linking reactions; also called Tousled kinase TLK1B; source: recombinant, prepared as described previously [10]
T1 sequence (looked up): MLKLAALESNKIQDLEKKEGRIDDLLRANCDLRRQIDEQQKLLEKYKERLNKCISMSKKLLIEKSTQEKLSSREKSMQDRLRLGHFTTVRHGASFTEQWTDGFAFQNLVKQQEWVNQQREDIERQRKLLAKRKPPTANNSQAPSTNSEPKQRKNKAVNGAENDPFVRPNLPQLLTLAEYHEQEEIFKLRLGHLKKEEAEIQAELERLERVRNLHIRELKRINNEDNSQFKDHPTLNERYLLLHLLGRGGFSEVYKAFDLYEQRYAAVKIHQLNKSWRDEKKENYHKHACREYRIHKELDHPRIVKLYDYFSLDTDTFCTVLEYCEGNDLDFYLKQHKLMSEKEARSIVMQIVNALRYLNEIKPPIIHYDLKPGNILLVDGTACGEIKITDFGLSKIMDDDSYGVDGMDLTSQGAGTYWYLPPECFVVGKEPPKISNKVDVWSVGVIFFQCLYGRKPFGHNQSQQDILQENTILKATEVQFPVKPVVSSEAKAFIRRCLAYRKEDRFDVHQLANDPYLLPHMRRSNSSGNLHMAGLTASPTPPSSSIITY
Description: pull-down; GST-TLK1B (5 ug with varying amounts of Asf1, or 1 ug each with and without 10 or 100 uM ATP and 1 mM MgCl2), 10 min at room temperature, adsorbed on GSH-Sepharose; bound and unbound fractions on 10% SDS-PAGE stained with Coomassie blue. Conditions: both partners purified.

B1: recombinant human Asf1B (natural protein, UniProt Q9NVP2 1-202, looked up)
chain: MAKVSVLNVAVLENPSPFHSPFRFEISFECSEALADDLEWKIIYVGSAESEEFDQILDSVLVGPVPAGRHMFVFQADAPNPSLIPETDAVGVTVVLITCTYHGQEFIRVGYYVNNEYLNPELRENPPMKPDFSQLQRNILASNPRVTRFHINWDNNMDRLEAIETQDPSLGCGLPLNCTPIKGLGLPGCIPGLLPENSMDCI
notes: Asf1B, histone H3-H4 chaperone, human, recombinant; source: recombinant, prepared as described previously [10]
On to B1, for which, in experiment [1], the percent inhibition of H3–H4 tetramer formation was 57%. Moreover, in experiment [2], the “stoichiometry N” value came out at 1.
